Test results from PMC5777823 (eLife, 2017).

Biological target: T1, CENP-L:CENP-N^230-C complex (human, UniProt Q8N0S6 1-344; Q96H22 230-339)
T1 construct: CENP-L, human; CENP-N, human, residues 230 to the C-terminus of the 339-residue protein; Form used in SEC and ITC, named without GST; tag probably cleaved with 3C protease; also called CENP-LN^230-C; CENP-LN^230-C dimer; source: Tnao38 insect cells (baculovirus, co-expressed), purified (GSH-Sepharose, Superdex 200)
Assay: ITC; 25°C, ITC200; 20 mM HEPES pH 7.5, 2.5% glycerol, 300 mM NaCl, 1 mM TCEP; protein in the cell at 5–8 µM, ligand at 50–80 µM; single site binding model
Conditions: both partners purified

T1 sequence (Q8N0S6 whole entry, chain 1 of 2, the tested form may be a part): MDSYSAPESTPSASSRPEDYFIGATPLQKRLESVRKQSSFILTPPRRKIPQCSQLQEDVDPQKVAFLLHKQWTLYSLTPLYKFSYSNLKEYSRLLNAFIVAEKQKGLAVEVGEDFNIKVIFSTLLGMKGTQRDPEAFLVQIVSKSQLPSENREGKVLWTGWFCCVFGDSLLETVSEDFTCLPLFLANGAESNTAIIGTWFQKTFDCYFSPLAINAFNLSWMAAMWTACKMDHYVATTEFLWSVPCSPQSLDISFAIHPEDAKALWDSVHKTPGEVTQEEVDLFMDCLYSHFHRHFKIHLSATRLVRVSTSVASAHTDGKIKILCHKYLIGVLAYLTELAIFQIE
T1 sequence (Q96H22 230-339, chain 2 of 2): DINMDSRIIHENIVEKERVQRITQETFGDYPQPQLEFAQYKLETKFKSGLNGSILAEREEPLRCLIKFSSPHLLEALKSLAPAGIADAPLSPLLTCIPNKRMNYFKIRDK

B1: CENP-C^225-364 (domain or fragment, human, UniProt Q03188 225-364, looked up)
chain: SDEEDKTSEGQERKPSGSSQNRIRDSEYEIQRQAKKSFSTLFLETVKRKSESSPIVRHAATAPPHSCPPDDTKLIEDEFIIDESDQSFASRSWITIPRKAGSLKQRTISPAESTALLQGRKSREKHHNILPKTLANDKHS
notes: pGEX-6P-2rbs; named without GST in the assays; source: bacteria, purified as described (Klare et al., 2015)
- Kd: 1000 nM
